According to US20150064751:

B1: periplasmically-targeted bovine enterokinase expressed with the DsbA periplasmic signal sequence (protein)
chain: IVGGSDSREGAWPWVVALYFDDQQVCGASLVSRDWLVSAAHCVYGRNMEPSKWKAVLGLHMASNLTSPQIETRLIDQIVINPHYNKRRKNNDIAMMHLEMKVNYTDYIQPICLPEENQVFPPGRICSIAGWGALIYQGSTADVLQEADVPLLSNEKCQQQMPEYNITENMVCAGYEAGGVDSCQGDSGGPLMCQENNRWLLAGVTSFGYQCALPNRPGVYARVPRFTEWIQSFLH
B2: periplasmically-targeted bovine enterokinase expressed with the MalE periplasmic signal sequence (protein)
chain: B1 chain
B3: periplasmically-targeted bovine enterokinase expressed with the OmpA periplasmic signal sequence (protein)
chain: B1 chain

Target: cleavage control protein containing an enterokinase cleavage site (Asp-Asp-Asp-Asp-Lys)

Protein | cleavage of the 48 kDa control protein into 32 and 16 kDa fragments (SDS-PAGE, Coomassie; periplasmic fraction, 30 C, 24 h)
B1 | the periplasmically localized enterokinase is active in cleaving the target protein
B2 | the periplasmically localized enterokinase is active in cleaving the target protein
B3 | the periplasmically localized enterokinase is active in cleaving the target protein
